# Source: patent US9528993B2, “Agents and methods related to screening for resistance to DR5 and reducing resistance to DR5 agonists” (The UAB Research Foundation, priority 2005, dated 2016)
# B1: DDX3ΔCARD: dominant negative mutant DDX3 lacking aa 1-150 (CARD-truncated DDX3) (protein)
# chain: FSGGNTGINFEKYDDIPVEATGNNCPPHIESFSDVEMGEIIMGNIELTRYTRPTPVQKHAIPIIKEKRDLMACAQTGSGKTAAFLLPILSQIYSDGPGEALRAMKENGRYGRRKQYPISLVLAPTRELAVQIYEEARKFSYRSRVRPCVVYGGADIGQQIRDLERGCHLLVATPGRLVDMMERGKIGLDFCKYLVLDEADRMLDMGFEPQIRRIVEQDTMPPKGVRHTMMFSATFPKEIQMLARDFLDEYIFLAVGRVGSTSENITQKVVWVEESDKRSFLLDLLNATGKDSLTLVFVETKKGADSLEDFLYHEGYACTSIHGDRSQRDREEALHQFRSGKSPILVATAVAARGLDISNVKHVINFDLPSDIEEYVHRIGRTGRVGNLGLATSFFNERNINITKDLLDLLVEAKQEVPSWLENMAYEHHYKGSSRGRSKSSRFSGGFGARDYRQSSGASSSSFSSSRASSSRSGGGGHGSSRGFGGGGYGGFYNSDGYGGNYNSQGVDWWGN
# Key:
# [1] = test system: TRA-8-resistant tumor cells; assay: ATPLITE assay of TRA-8-resistant tumor cells transfected with DDX3ΔCARD; format: cell-based; conditions: four lines, adenoviral vector, 500 ng/ml TRA-8 overnight
# Description: Cytotoxicity analysis of tumor cell susceptibility to TRA-8, 2E12, and TRAIL-mediated apoptosis. Cells (1,000 cells per well) were seeded into 96-well plates in triplicate with eight concentrations (double serial dilutions from 1000 ng/ml) of TRA-8, 2E12, or TRAIL. Cell viability was determined after overnight culture using an ATPLITE™ assay according to the manufacturer's instructions (Packard Instruments, Meriden, Conn.). The results are presented as the precentage of viable cells in treated wells compared to medium control wells.
# cIAP1 = molecular target: T1, cIAP1 (Homo sapiens, UniProt Q13490); assay: Co-immunoprecipitation of DDX3 mutant with cIAP1; format: binding
# T1 construct: endogenous in cells
# Description: Anti-DDX3 or anti-TRAIL-R2 antibody was conjugated to Sepharose beads (Sigma). The composition of the TRAIL-R2 DISC was determined as follows. 5×10^6 cells (if not otherwise indicated) were treated with 500 ng/ml of TRA-8 for the indicated time at 37° C. and then lysed in immunoprecipitation-lysis buffer (20 mM Tris-HCl, pH 7.4, 150 mM NaCl, 0.2% NONIDET P40, and 10% glycerol and complete protease inhibitor cock-tail) or lysed without treatment (unstimulated condition). […] After immunoprecipitation, the beads were washed four times with lysis buffer. The beads were then washed five times with 10 mM Tris buffer and resuspended in loading buffer for SDS-PAGE and immunoblotting analyses.
# T1 sequence (Q13490 whole entry): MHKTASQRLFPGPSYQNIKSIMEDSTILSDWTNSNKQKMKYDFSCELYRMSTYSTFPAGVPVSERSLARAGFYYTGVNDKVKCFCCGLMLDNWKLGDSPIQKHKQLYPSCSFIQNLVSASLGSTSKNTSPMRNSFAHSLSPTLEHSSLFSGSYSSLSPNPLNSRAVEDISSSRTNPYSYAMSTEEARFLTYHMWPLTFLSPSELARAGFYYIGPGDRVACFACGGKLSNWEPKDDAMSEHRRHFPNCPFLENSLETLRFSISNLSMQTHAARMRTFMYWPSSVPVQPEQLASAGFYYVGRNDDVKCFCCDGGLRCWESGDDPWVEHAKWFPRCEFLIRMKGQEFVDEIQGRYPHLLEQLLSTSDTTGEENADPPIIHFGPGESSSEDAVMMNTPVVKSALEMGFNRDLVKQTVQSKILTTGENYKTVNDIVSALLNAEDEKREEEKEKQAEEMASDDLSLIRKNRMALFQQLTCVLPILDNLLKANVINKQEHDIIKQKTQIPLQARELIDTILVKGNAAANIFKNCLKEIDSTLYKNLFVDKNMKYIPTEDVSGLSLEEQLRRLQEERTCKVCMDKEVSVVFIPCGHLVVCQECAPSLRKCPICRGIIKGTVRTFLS
molecule,measurement,setting,value
B1,susceptibility to TRA-8-induced apoptosis,[1],regained their susceptibility to TRA-8-induced apoptosis
same,interaction with cIAP1,cIAP1,fails to interact with cIAP1
